Target: T1, streptolysin O (SLO) secreted by Group A Streptococcus strain JRS4 (Streptococcus pyogenes JRS4 (serotype …, UniProt Q5XE40))
T1 construct: also called GAS pore-forming toxin; bacterial cytolysin
Test: co-IP
Conditions: partners not purified

B1: STAND-HS1 (anti-SLO intrabody) (scFv, V domains shown)
VH: EVQLQESGPSLVKPSQTLSLTCSVTGDSITSGYWNWIRKFPGNKFEYMGYISYGDSTYYNPSLKSRISITRDTSKNQYYLQLNSVTTEDTATYYCARLGNDYNWYFDVWGAGTTVTVSS
VL: DIQMNQSPSSLSASLGDTITITCHASQNINVWLSWYQQKPGNIPKLLIFKASNLYTGVPSRFSGSGSGTGFTLTISSLQPEDIATYYCQQGQTYPLTFGGGTKL
notes: also called anti-SLO scFv; anti-SLO intracellular antibody; not shown: 3xFLAG, N-terminal, kept
- binding result: binds
